Test results taken from patent US20200262914A1 (MIT, published 2020).

Assays:
[1] = target: T1, human Bcl-xL (residues 1-209) (human, UniProt Q07817 1-209); assay: yeast display, sparse titration, apparent KD;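 also: designs displayed on the yeast cell surface, binding of soluble target protein measured at four concentrations spanning nanomolar to micromolar, apparent KD estimated from this sparse titration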
T1 construct: range 1-209

[2] = target: T2, human Bfl-1 (residues 1-151) (human, UniProt Q16548 1-151); assay: competition FP vs fluoresceinated Bim BH3, solution
T2 construct: range 1-151
T2 sequence (looked up): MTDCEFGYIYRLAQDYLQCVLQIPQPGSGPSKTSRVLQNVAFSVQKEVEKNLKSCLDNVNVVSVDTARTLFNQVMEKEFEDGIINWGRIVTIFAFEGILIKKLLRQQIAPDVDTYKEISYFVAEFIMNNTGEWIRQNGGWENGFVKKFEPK

[3] = target: T3, human Mcl-1 (residues 172-327) (human, UniProt Q07820 172-327); assay: yeast surface display
T3 construct: range 172-327
T3 sequence (Q07820 172-327 limits assumed): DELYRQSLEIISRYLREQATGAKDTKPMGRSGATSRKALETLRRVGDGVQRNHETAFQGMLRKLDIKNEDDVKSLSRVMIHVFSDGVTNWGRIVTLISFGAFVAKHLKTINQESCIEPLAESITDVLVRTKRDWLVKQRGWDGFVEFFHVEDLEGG

[4] = target: T1, human Bcl-xL (residues 1-209); assay: yeast surface display
[5] = target: T2, human Bfl-1 (residues 1-151); assay: yeast surface display
[6] = target: T3, human Mcl-1 (residues 172-327); assay: yeast display, sparse titration, apparent KD;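 also: designs displayed on the yeast cell surface, binding of soluble target protein measured at four concentrations spanning nanomolar to micromolar, apparent KD estimated from this sparse titration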
[7] = target: T1, human Bcl-xL (residues 1-209); assay: competition FP vs fluoresceinated Bim BH3, solution
[8] = target: T3, human Mcl-1 (residues 172-327); assay: as above
[9] = target: T2, human Bfl-1 (residues 1-151); assay: yeast display, sparse titration, apparent KD;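 also: designs displayed on the yeast cell surface, binding of soluble target protein measured at four concentrations spanning nanomolar to micromolar, apparent KD estimated from this sparse titration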

T1 sequence (Q07817 1-209 limits assumed): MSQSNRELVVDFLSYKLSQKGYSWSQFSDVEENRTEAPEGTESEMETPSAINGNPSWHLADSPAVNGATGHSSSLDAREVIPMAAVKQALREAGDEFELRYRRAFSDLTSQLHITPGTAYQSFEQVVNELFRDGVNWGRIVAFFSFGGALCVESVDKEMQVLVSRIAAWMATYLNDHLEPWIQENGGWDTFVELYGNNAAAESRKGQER

GQSLIWFGASLRRGADEFAAQR [X6] gave a Kd [1] of less than 100 nM.

For GQTLIWFGASLRRGADEFAAQR [X11], the Kd [1] was less than 100 nM.

For GQPLIWFGASLRRGADEFAKQR [X3], the Kd [1] was less than 100 nM.

GQPLIWFGAQLRRGADEFAAQR [X7] gave a Kd [1] of less than 100 nM.

Ac-QRVVHIAAGLRRTGDQLEAYGER-NH2 [srt.F4] was tested, and the Ki [2] was greater than 4000 nM.

GRWIDQIAQFLRRIGDHIEKYI (also called MF2) [MF02]: binds [3]; binds [4]; binds [5].

GRSQIWYDQELVRSGDVNAAYR [MX2]: no binding [3]; no binding [4].

GRSQIWYDQELVRYGDVNAAYR [MX5]: no binding [3]; no binding [4].

GRSQIWYVQELVRSGDVNHAYR [MX6]: no binding [3]; no binding [4].

GRSQIWYDQELVRYADVNAAYR [MX4]: no binding [3]; no binding [4].

GRSQIWYVQELVRGGDVNHAYR [MX1]: no binding [3]; no binding [4].

GRSQIWYDQELVRSGDENAAYR [MX3]: no binding [3]; no binding [4].

GRSEIWYDQELVRSGDVNAAYR [MX7]: no binding [3]; no binding [4].

Work on GRSLYEYIQELIRIGDEVTAYF [M3] yielded a Kd [6] of less than 100 nM.

In the case of GRSLLEYIQELIRIGDEVIAYF [M4], the Kd [6] is reported as less than 100 nM.

Ac-QRIIWIAAELRRAADELDKQIER-NH2 (synthetic solution peptide) [srt.XF02] was tested, and the Ki [7] was 37 nM and the Ki [2] was 10 nM.

Ac-QRIIWIAAELRRAADQLDAQIER-NH2 (synthetic solution peptide) [srt.XF03] was tested, and the Ki [7] was 120 nM and the Ki [2] was 22 nM.

In the case of GQTLIWYGAQLRRYADEFAKQR [X2], the Kd [1] is reported as less than 100 nM.

With GQRLIWYGAQLRRYADDFAKQR [X10] the Kd [1] was less than 100 nM.

Work on GQTLIWYGAQLRRYADDFAKQR [X9] yielded a Kd [1] of less than 100 nM.

GQTLIWYGAQLRRVADDFAKQR [X4] gave a Kd [1] of less than 100 nM.

Work on GQTAIWYGASLRRAADEFAKQR [X5] yielded a Kd [1] of less than 100 nM.

GQSMIWYGASLRRAADEFAKQR [X8] gave a Kd [1] of less than 100 nM.

Binder GQTLIWYGASLRRYADEFAKQR [X1] has a Kd [1] of less than 100 nM.

For GQGLIWYGAQLRRVADDFAKQR [X12], the Kd [1] was less than 100 nM.

In the case of Ac-QWAREIGAQLRRMADDLNAQYER-NH2 [Puma], the Ki [8] is reported as 1.69 nM and the Ki [2] is reported as 4.8 nM.

GRSEYEYIQELIRIGDIVDAYF [M11] gave a Kd [6] of less than 100 nM.

With GRSELEYIQELIRIGDNVDAYF [M7] the Kd [6] was less than 100 nM.

GRSELEYIQELIRIGDIVDAYF [M8] was tested, and the Kd [6] was less than 100 nM.

With GRGQYEYIQELIRIGDIVDAYF [M12] the Kd [6] was less than 100 nM.

Binder GRSEYEYIQELVRIGDEVDAYF [M2] has a Kd [6] of less than 100 nM.

GRSEYEYIQELIRIGDNVDAYF [M10] was tested, and the Kd [6] was less than 100 nM.

Work on GRSELEYIQELVRIGDEVDAYF [M5] yielded a Kd [6] of less than 100 nM.

GRGQLEYIQELIRIGDIVDAYF [M6] gave a Kd [6] of less than 100 nM.

GRRVDEIAQILRRIGDNVTTYI (also called MF6) [MF06]: binds [3]; binds [5].

Ac-RRVVQIAAGLRRAGDQLEKYGER-NH2 [srt.F10] showed a Ki [2] of 300 nM.

B1: srt.M1 (peptide)
peptide: Ac-RSELEVVQELVRIGDIVVAYFER-NH2
notes: synthetic solution peptide; also called vM1
B1 showed a Ki [8] of 2.4 nM.

With GRSQYEVIQELIRIGDIVLAYF [M9] the Kd [6] was less than 100 nM.

GQRVVQIAAGLRRTGDQLEKYG [F6] was tested, and the Kd [9] was less than 100 nM.

GQRVVQIAQGLRRTGDQLEKQG [F7] gave a Kd [9] of less than 100 nM.

Work on GQRVVHIAQGLRRTGDQLEAQG [F5] yielded a Kd [9] of less than 100 nM.

Binder GQRVVQIAQGLRRAGDQLEKYG [F11] has a Kd [9] of less than 100 nM.

GRRVVQIAQGLRRAGDQLEKQG [F12] was tested, and the Kd [9] was less than 100 nM.

For GRRVVQIAAGLRRTGDQLEKQG [F8], the Kd [9] was less than 100 nM.

With GRRVVHIAAGLRRTGDQLEAQG [F3] the Kd [9] was less than 100 nM.

GRRIDEIAQILRRIGDHIEKYI [MF01]: binds [3]; binds [4]; binds [5].

GRRIDEIAQILRRIGDHVEKYI [MF05]: binds [3]; binds [4]; binds [5].

B2: srt.M9 (peptide)
peptide: Ac-RSQYEVIQELIRIGDIVLAYFER-NH2
notes: synthetic solution peptide; also called vM9
Binder B2 has a Ki [8] of 0.6 nM.

Work on GRSELEVVQELVRIGDIVVAYF [M1] yielded a Kd [6] of less than 100 nM.

GRRVDEIAQILRRIGDNIEEYI [MF03]: binds [3]; binds [4]; binds [5].

GRRVDEIAQILRRIGDQIEEYI [MF07]: binds [3]; binds [4]; binds [5].

GRRVDEIAQILRRIGDNINEYI [MF04]: binds [3]; binds [4]; binds [5].

Binder GRRVRHIAQGLRRAGDQLDAYG [F1] has a Kd [9] of less than 100 nM.

For GQRVRHIAQGLRRTGDQLDAYG [F2], the Kd [9] was less than 100 nM.

For GRRVRHIAQGLRRAGDQLDKYG [F9], the Kd [9] was less than 100 nM.
